Data taken from patent publication US20110269234.

System: KDR-targeted ZFN pair (artificial)
Experiment: cell_activity
Conditions: HeLa; up to about 25% with 30 C cold shock versus 1% at 37 C

Work on KDR locus target yielded an activity (% modified chromatids) of 25.
